T1: PAR-2 (Homo sapiens, UniProt P55085)
T1 construct: endogenous in cells; host or cells: HUVEC or HT29 colon carcinoma cells
T1 sequence (P55085 26-397): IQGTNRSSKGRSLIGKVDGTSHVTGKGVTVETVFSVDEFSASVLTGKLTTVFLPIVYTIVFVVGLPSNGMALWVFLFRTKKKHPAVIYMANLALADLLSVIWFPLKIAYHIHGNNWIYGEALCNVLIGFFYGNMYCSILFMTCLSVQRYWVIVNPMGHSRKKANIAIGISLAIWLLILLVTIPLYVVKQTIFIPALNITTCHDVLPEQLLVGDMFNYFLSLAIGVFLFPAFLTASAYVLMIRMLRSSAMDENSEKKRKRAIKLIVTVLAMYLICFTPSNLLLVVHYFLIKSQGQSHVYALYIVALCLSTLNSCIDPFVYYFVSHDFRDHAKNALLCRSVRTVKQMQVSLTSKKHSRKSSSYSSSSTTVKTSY

T2: PAR-1 (Homo sapiens, UniProt P25116)
T2 construct: endogenous in cells; host or cells: HUVEC or HT29 colon carcinoma cells
T2 sequence (P25116 22-425): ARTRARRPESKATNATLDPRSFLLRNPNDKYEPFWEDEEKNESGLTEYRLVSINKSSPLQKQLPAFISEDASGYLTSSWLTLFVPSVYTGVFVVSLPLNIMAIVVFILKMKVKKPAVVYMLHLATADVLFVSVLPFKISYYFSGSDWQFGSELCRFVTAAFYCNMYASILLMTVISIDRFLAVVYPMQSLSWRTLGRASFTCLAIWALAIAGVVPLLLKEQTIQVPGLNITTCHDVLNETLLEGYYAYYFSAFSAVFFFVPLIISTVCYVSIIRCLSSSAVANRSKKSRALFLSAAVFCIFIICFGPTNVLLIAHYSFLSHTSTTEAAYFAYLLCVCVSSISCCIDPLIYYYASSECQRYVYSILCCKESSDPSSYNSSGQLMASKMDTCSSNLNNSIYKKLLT

T3: Proteinase activated receptor-2 (PAR-2) (UniProt P55085 37-397, limits assumed)
T3 sequence (looked up): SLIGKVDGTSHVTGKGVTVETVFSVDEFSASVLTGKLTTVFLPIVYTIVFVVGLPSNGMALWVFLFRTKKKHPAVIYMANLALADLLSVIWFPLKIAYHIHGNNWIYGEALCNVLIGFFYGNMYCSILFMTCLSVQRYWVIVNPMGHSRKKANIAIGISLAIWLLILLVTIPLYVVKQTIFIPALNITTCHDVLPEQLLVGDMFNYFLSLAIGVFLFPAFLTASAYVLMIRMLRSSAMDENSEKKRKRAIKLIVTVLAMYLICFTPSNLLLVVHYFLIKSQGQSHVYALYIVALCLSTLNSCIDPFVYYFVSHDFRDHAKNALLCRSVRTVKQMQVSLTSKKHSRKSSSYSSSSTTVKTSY


Key:
PAR-2 [1] = biological target: T1, PAR-2; experiment: PAR signalling activity: calcium mobilization (Fluo-4) in response to peptides; format: cell-based; conditions: result in words, FIG. 4A-4C
Method: (§1) Confluent HUVECs or HT29 colon carcinoma cells were loaded for 30-60 minutes with the fluorescent dye Fluo-4. Final concentration 4 uM Fluo-4, 0.02% pluronic acid in physiological buffer. Cells were then washed with assay buffer, (HBSS containing 1 mM CaCl2, 1 mM MgSO4, and 2.5 mM probenecid). Cells were stimulated with various doses of PAR-2 activating peptide, PAR-1 activating peptide or ATP.
(§2) Fluorescence was monitored using a Wallac 1470 fluorescent plate reader. (See Al-ani et. al Journal of Pharmacology and Experimental Therapeutics 290:2, 753-760)
Calcium mobilization curves of the PAR-2 agonist SLIGKV (SEQ ID NO:25) compared with two truncated molecules LIGK (SEQ ID NO:1) and LIGKV (SEQ ID NO:2) are provided in FIG. 4A. […] Similar studies were performed on alanine substituted SLIGKV (SEQ ID NO:25) peptides (FIGS. 4B and 4C).

PAR-2 [2] = biological target: T1, PAR-2; experiment: Inhibition of P2AP (SLIGKV)-stimulated PAR-2 signaling in cells pretreated with antagonist; format: cell-based; conditions: result in words; cells pretreated with the substance, then P2AP
Method: as §1, §2
In order to assess the potential of peptides selected above to block PAR-2 signaling, cells were pretreated with potential antagonist peptides for a predetermined amount of time and were subsequently treated with P2AP. Methods and protocols used were the same as those described in Example 1.

[3] = system: ATP signaling (G-protein coupled receptors); experiment: Activation study with ATP on cells pretreated with antagonist; format: cell-based; conditions: cells pretreated with the substance
Method: as §1, §2
(§3) Both of these molecules signal through G-protein coupled receptors, and PAR-1 is very highly homologous to PAR-2, to the degree that the PAR-1 agonist peptide can signal through PAR-2 at high concentrations.

PAR-1 = biological target: T2, PAR-1; experiment: Activation study with PAR-1 activation peptide SFLLRN on cells pretreated with antagonist; format: cell-based; conditions: cells pretreated with the substance
Method: as §1, §2, §3

Lewis lung carcinoma = Lewis lung carcinoma (LLC) experimental metastatic model; format: in vivo, mice; conditions: metastatic tumor growth studies, FIG. 16
Method: In this tumor growth model, treatments were initiated on day 3 post inoculation, after tumor cells had homed to the lung, and started growing. […] At a dose of 4 mg/day tumor growth was inhibited by 75%. […] C57/B16 mice were injected i.v. with Lewis lung carcinoma. 3 days later, treatment of lung tumors was started with i.p. LIGK (SEQ ID NO:1) for 11 days.

[4] = Arthritis in mice (anti-collagen II antibody plus LPS), foot thickness; format: in vivo; conditions: 200 mg/kg/day i.p. for 7 days, Balb/c mice, FIG. 19
Method: On day 0, Balb/c mice were injected IV with the 1 -2 mg 1B11 monoclonal anti-collagen II antibody. On day 1, animals were injected i.p with 20 ug LPS, and treatment with PAR-2 antagonists (200 mg/kg/day i.p). for 7 days is initiated. After treatment was completed, disease is quantified by measuring the thickness (swelling) in both feet of the mouse. This was compared to untreated mice. (p<0.05 vs. vehicle control)

[5] = biological target: T3, Proteinase activated receptor-2 (PAR-2); experiment: cell-based or functional assay

antagonist activity on PAR-2 signaling (PAR-2 [2]) | Molecule | calcium mobilization / signaling activity (PAR-2 [1]) | also measured
 | SLIAKV [alanine substituted SLIGKV peptide] | robust signaling activity | 
 | SLIGKV (listed as Homo sapiens) [reference compound] | typical spike of calcium release followed by degradation of signal | 
extremely potent inhibitor | Br.CC(C)CC(=O)N1CCN(C(=O)CCCCCN)CC1 [ENMD-547] |  | inhibitory effect on signaling by ATP [3]: no inhibitory effects; inhibitory effect on signaling by PAR-1 (activation peptide SFLLRN) (PAR-1): no inhibitory effects; antitumor activity relative to the parental LIGK molecule (Lewis lung carcinoma): approximately five fold; inflammation (arthritis, foot swelling) [4]: inhibited inflammation
demonstrated antagonist activity | LIGKV | Neither truncated molecule was able to induce calcium mobilization | 
 | SLIGKA [alanine substituted SLIGKV peptide] | robust signaling activity | 
 | LIGK [LIGK (SEQ ID NO:1)] |  | IC50 of inhibition of PAR-2 signaling (calcium mobilization stimulated by SLIGKV) [5]: < 500 µM
